The record followed here is the supplement of paper PMC7125110.

B1: glmS ribozyme (parent)
chain: AUAAAAGCGCCAGAACUACAGAAAUGUAGUUGACGAGGAGGAGGUUUAUCGAAUUUUCGGCGGAUGCCUCCAAA

Details in all cases: with glucosamine-6-phosphate
Variants of B1 are the subject of data set [1]. Briefly: kcat; higher = faster cleavage; RNA array. A digest of the protocol:
(§1)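 Barcoded ribozyme variants on sequenced MiSeq chips were transcribed in situ by E. coli RNA polymerase and followed at 37 °C through a hybridised Cy3 probe. Glucosamine-6-phosphate at 40 μM to 10 mM in HEPES/KCl/Mg(OAc)2 buffer was flowed in, and tiles were imaged over ~14 h. Signals were normalised to baseline and to non-cleaving reference variants, and per-tile medians were fit to one- or two-exponential decays to give kobs. Weighted Michaelis–Menten fits across concentrations gave kcat and KM.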

The variants in data set [2] derive from B1. Briefly: KM; higher = weaker cofactor use; RNA array. Summed up:
as §1

The variants in data set [3] derive from B1. Nature of the data set: self-cleavage kobs at 40 uM GlcN6P; higher = faster cleavage; RNA array. Summed up: as §1
In data set [4] the parent is B1. Briefly: self-cleavage kobs at 160 uM GlcN6P; higher = faster cleavage; RNA array. Summed up:
as §1

Variants of B1 are the subject of data set [5]. Briefly: self-cleavage kobs at 640 uM GlcN6P; higher = faster cleavage; RNA array. A digest of the protocol: as §1
The variants in data set [6] derive from B1. Nature of the data set: self-cleavage kobs at 2500 uM GlcN6P; higher = faster cleavage; RNA array. A digest of the protocol:
as §1

Data set [7] covers variants of B1. Nature of the data set: self-cleavage kobs at 10000 uM GlcN6P; higher = faster cleavage; RNA array. A digest of the protocol:
as §1

± gives the standard error. For part of these data: Fewer inactive variants are shown than the library holds.

As a reminder, the kcat is the maximal rate divided by the concentration of active sites. Usually KM stands for the concentration of substrate that gives half-maximal velocity. For the variant AUAAAAGCGCCAGAAGUACAGAAAUGUAGUGGACGAGGAGGAGGUUUAUCGAAUUUUCGGCGGAUGCCUCCAAA [C16G U31G], the kcat in data set [1] was determined as 0.000843 ± 0.00018 s⁻¹. The KM in data set [2] amounted to 2360 ± 940 µM. In addition, in data set [3], the “self-cleavage kobs at 40 uM GlcN6P” value is 4.37e-05 ± 1.7e-05 s⁻¹. Besides, the “self-cleavage kobs at 160 uM GlcN6P” value in data set [4] came to 4.98e-05 ± 1.6e-05 s⁻¹. The “self-cleavage kobs at 640 uM GlcN6P” value in data set [5] was found to be 0.000186 ± 4.5e-05 s⁻¹. In data set [6], the “self-cleavage kobs at 2500 uM GlcN6P” value stood at 0.000366 ± 0.0001 s⁻¹. The “self-cleavage kobs at 10000 uM GlcN6P” value in data set [7] amounted to 0.00071 ± 0.0001 s⁻¹.

As for AUAAAAGCGCCAGAACUACAGAAAUGUAGUUGUCGAGGAGGAGGUUUAUCGAAUUUUCGGUGGAUGCCUCCAAA [A33U C61U], the kcat in data set [1] is below 1e-05 s⁻¹. In data set [5], the “self-cleavage kobs at 640 uM GlcN6P” value was below 1e-05 s⁻¹.

Consider AUAAAAGCGCCACAACUACAGAAAUGUAGUUGACGAGGAGGAGGUUGAUCGAAUUUUCGGCGGAUGCCUCCAAA [G13C U47G], for which the kcat in data set [1] stood at 3.48e-05 ± 2.1e-06 s⁻¹. In addition, the “self-cleavage kobs at 40 uM GlcN6P” value in data set [3] was below 1e-05 s⁻¹. Also, the “self-cleavage kobs at 10000 uM GlcN6P” value in data set [7] was found to be 3.53e-05 ± 8.5e-06 s⁻¹.

In the case of AUAAAAGCGCCAGAUCUACAGAAAUGUAGUUGACGAGGAGGAGGUUUAUCGAAAUUUCGGCGGAUGCCUCCAAA [A15U U54A], in data set [1], the turnover number (kcat) was found to be 0.00741 ± 0.001 s⁻¹. Moreover, the KM in data set [2] is 1360 ± 360 µM. Moreover, the “self-cleavage kobs at 160 uM GlcN6P” value in data set [4] amounted to 0.00059 ± 0.00026 s⁻¹. Moreover, the “self-cleavage kobs at 640 uM GlcN6P” value in data set [5] is 0.00262 ± 0.00048 s⁻¹. Moreover, in data set [6], the “self-cleavage kobs at 2500 uM GlcN6P” value was 0.00516 ± 0.0014 s⁻¹. In data set [7], the “self-cleavage kobs at 10000 uM GlcN6P” value is 0.00623 ± 0.0012 s⁻¹.

On to AUAAAAGCGCCAGAACUACAGAAAUGUAGUUGACGAGGAGGAGGUUUAUCGAAUUUUGGUCGGAUGCCUCCAAA [C58G G60U], for which the kcat in data set [1] is below 1e-05 s⁻¹. In addition, the “self-cleavage kobs at 40 uM GlcN6P” value in data set [3] was below 1e-05 s⁻¹. For the same variant, the “self-cleavage kobs at 160 uM GlcN6P” value in data set [4] was below 1e-05 s⁻¹. Moreover, the “self-cleavage kobs at 640 uM GlcN6P” value in data set [5] is below 1e-05 s⁻¹. In addition, the “self-cleavage kobs at 2500 uM GlcN6P” value in data set [6] was below 1e-05 s⁻¹.

Consider AUAAAAGCGCCAGAACUACAGAAAUGUAGUCGACGAGGAGGAGGUUUAUCGUAUUUUCGGCGUAUGCCGCCAAA [U31C A52U G63U U69G], for which the kcat in data set [1] worked out at 1.91e-05 ± 1.4e-06 s⁻¹.

In the case of AUAAAGGCGCCAGAGCUACAGAAAUGUAGUUGACGAGGAGGAGGUUUAUCGAAUUUUCGGCGGAUGCCUCCAAA [A6G A15G], the kcat in data set [1] was 0.000647 ± 5.3e-05 s⁻¹. Further, the KM in data set [2] is 2540 ± 370 µM. In data set [4], the “self-cleavage kobs at 160 uM GlcN6P” value stood at 3.49e-05 ± 1.1e-05 s⁻¹. For the same variant, the “self-cleavage kobs at 640 uM GlcN6P” value in data set [5] stood at 0.000131 ± 1.7e-05 s⁻¹. The “self-cleavage kobs at 2500 uM GlcN6P” value in data set [6] worked out at 0.000324 ± 4.3e-05 s⁻¹. Further, the “self-cleavage kobs at 10000 uM GlcN6P” value in data set [7] worked out at 0.000514 ± 5.4e-05 s⁻¹.

AUAAAAGCGCCAGAACUACAGAAAUGUAGUUGACGAGGAGCAGGGUUAUCGAAUUUUCGGCGGAUCCCUCCAAA [G41C U45G G66C]: the kcat in data set [1] amounted to 4.62e-05 ± 1e-05 s⁻¹. Besides, the “self-cleavage kobs at 10000 uM GlcN6P” value in data set [7] amounted to 2.84e-05 ± 1.2e-05 s⁻¹.

As for AUAAAAGCGCCAGAACUACAGAAAUGUAGUUGACGAGGAGGAGGUUUAUCGAGUUAUCGGCGGAUGCCUCCAAA [A53G U56A], in data set [1], the turnover number (kcat) stood at 0.0133 ± 0.0047 s⁻¹. In addition, in data set [2], the KM came out at 1830 ± 890 µM. Further, in data set [3], the “self-cleavage kobs at 40 uM GlcN6P” value is 0.000437 ± 9e-05 s⁻¹. Also, in data set [4], the “self-cleavage kobs at 160 uM GlcN6P” value was 0.00116 ± 0.00021 s⁻¹. Also, in data set [5], the “self-cleavage kobs at 640 uM GlcN6P” value was determined as 0.00273 ± 0.00051 s⁻¹. In data set [6], the “self-cleavage kobs at 2500 uM GlcN6P” value came out at 0.00663 ± 0.0019 s⁻¹. The “self-cleavage kobs at 10000 uM GlcN6P” value in data set [7] was 0.0137 ± 0.0026 s⁻¹.
